Data on four molecules can be found in paper PMC9637774.

Data set [1] concerns the target T1, Dicer-1 (Dcr-1);Loqs-PB (Loquacious isoform PB) (Drosophila melanogaster;Drosophila …, UniProt Q9VCU9;Q9VJY9 1-2249;1-465, |). Kind of data set: cryo-EM structure.
The target in data set [2] is T1, Dicer-1 (Dcr-1);Loqs-PB (Loquacious …). Nature of the data set: cryo-EM structure. This is another data set of the same source.
For data set [3] the target is unchanged. Kind of data set: competition.
Data set [4] has the same target. Nature of the data set: cryo-EM structure. This is another data set of the same source.

T1 sequence (Q9VCU9 whole entry, chain 1 of 2, canonical isoform): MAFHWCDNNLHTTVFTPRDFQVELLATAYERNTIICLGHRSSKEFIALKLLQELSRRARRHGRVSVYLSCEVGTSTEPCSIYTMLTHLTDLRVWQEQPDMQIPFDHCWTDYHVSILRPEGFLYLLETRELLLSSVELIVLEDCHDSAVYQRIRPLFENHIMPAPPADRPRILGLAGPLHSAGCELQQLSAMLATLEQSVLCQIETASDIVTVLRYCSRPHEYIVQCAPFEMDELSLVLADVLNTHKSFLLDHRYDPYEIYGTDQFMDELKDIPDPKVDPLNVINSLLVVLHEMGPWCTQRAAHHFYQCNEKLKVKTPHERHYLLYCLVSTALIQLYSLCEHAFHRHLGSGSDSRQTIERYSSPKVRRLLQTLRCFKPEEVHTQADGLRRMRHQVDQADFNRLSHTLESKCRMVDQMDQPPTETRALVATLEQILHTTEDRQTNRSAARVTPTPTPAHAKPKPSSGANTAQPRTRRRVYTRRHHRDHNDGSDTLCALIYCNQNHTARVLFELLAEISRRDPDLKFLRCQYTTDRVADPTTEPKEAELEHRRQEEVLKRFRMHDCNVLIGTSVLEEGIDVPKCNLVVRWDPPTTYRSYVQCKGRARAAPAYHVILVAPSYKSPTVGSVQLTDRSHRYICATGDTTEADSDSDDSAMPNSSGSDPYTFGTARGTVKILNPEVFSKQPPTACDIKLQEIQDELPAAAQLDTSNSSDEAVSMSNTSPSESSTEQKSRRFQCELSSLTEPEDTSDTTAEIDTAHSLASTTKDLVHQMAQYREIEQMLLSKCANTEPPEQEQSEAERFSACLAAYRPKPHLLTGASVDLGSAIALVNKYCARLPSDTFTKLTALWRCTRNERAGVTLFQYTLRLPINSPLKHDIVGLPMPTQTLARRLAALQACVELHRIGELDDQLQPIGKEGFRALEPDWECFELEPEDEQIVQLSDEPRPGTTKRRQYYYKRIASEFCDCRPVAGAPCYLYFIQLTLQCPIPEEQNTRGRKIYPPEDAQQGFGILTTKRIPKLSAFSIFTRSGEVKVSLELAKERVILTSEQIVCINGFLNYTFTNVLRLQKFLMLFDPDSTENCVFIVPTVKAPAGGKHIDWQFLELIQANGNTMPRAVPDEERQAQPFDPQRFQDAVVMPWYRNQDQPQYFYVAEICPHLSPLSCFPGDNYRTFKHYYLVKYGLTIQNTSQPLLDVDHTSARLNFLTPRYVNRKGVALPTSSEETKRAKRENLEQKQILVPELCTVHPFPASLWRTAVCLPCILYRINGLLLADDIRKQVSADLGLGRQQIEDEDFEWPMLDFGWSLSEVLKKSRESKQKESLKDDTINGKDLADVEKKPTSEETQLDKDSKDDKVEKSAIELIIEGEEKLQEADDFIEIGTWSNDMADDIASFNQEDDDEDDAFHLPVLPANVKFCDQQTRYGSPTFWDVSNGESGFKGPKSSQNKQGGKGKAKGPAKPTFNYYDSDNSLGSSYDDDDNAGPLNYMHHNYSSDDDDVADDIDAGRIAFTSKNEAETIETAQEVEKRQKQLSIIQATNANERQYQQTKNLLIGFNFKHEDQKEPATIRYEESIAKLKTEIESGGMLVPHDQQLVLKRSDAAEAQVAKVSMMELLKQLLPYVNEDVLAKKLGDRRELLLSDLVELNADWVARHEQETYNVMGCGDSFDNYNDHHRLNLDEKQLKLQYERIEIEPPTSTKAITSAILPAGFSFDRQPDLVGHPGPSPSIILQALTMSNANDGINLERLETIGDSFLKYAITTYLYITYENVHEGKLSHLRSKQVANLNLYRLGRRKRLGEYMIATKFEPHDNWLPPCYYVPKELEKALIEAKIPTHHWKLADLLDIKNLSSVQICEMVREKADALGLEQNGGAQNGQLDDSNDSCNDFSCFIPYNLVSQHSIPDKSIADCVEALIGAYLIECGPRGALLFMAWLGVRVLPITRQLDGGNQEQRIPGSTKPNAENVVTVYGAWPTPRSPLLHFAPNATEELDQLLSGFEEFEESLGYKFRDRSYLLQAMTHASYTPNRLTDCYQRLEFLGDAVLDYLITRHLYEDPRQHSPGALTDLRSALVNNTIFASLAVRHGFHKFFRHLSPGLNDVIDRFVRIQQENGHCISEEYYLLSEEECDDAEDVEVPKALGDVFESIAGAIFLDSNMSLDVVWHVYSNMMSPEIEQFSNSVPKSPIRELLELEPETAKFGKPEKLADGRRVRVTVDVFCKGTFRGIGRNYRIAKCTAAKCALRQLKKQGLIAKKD
T1 sequence (Q9VJY9 whole entry, chain 2 of 2, canonical isoform): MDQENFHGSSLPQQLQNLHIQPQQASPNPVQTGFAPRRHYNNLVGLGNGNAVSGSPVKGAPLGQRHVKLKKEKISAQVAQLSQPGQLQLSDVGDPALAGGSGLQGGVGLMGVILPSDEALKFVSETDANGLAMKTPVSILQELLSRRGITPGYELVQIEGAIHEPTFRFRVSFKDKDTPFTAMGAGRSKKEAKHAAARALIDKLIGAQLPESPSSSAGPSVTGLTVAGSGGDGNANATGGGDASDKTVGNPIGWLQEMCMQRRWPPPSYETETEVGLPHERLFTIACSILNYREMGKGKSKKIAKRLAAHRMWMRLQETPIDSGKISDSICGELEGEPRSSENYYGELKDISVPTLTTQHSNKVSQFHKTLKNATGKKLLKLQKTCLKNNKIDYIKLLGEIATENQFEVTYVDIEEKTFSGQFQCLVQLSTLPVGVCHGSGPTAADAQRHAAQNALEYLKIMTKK

B1: model miRNA/miRNA* duplex (dsRNA)
RNA 1: UGAGGUAGUAGGUUGUAUAGUA
RNA 2: CUAUACAACCUACUACCUCUCU
modifications: 5' phosphates
As for B1, the binding result in data set [1] was “binds”.

B2: model pre-miRNA (structured_RNA)
RNA: UGAGGUAGUAGGUUGUAUAGUAGUAAUUACACAUCAUACUAUACAACCUACUACCUCUCU
modifications: 5' phosphate
For B2, the binding result in data set [2] was “binds”.

B3: pre-let-7 (structured_RNA)
RNA: UGAGGUAGUAGGUUGUAUAGUAGUAAUUACACAUCAUACUAUACAAUGUGCUAGCUUUCU
modifications: 5' phosphate
With B3, the binding result in data set [3] is recorded as “binds”.

B4: nicked model pre-miRNA (5' arm cleaved) (structured_RNA)
RNA 1: UGAGGUAGUAGGUUGUAUAGUA
RNA 2: GUAAUUACACAUCAUACUAUACAACCUACUACCUCUCU
modifications: 5' phosphate
As to B4, the binding result in data set [4] is reported as “binds”.
